Measured values reported in patent publication US20260117244A1, “INHIBITORY RNA FOR THE CONTROL OF PHYTOPATHOGENS” (priority 2021, published 2026).

B1: CYP51 dsRNA-1: long dsRNA targeting G. orontii MGH1 CYP51 (target SEQ ID NO:85); link to SEQ ID NO:212 likely (nucleic acid)
chain: TACGTGAAGAAGTGTCCCAGCTTCAAAGGACAAAAAGGCACCGTTAATATAACTGAAGTTATGGCTGAAATCACTATCTACACTGCTTCGCATACTCTACAAGGAAAACAGGTTCGTGACAGGTTTGATTCCTCTTTTGCCGCTCTCTATCATGACCTCGATATGGGGTTCACCCCAATTAATTTTGTGCTGCATTGGG
modifications: misc_feature 1..199: note = Inhibitory double stranded RNA; listed as RNA
B2: LIP1 dsRNA: long dsRNA against G. orontii TAG lipase 1 (target SEQ ID NO:1) (nucleic acid)
chain: ACCTCTGCTGGTTCTATCTCTGCTTTTAACTTATTAGTCGCCAAAGATGGTGCTTTATCTTATAATGGCAAACCGCTATTCCGTGCTGCTATTATGGACAGTGGTAGCATCGTGCCTACTGATGCGGTGAACTCCCCGAAGCCACAAAATGTTTTCGATCAAGTCGTGAGTGCTGGAGGCTGTAGTGAAGCATATGACAAAATTAGCTGTCTACGGAATCTCGACTACACCGAGTTTTTGTTCGCAAGTACATCAGTTCCTGGTCTATTTGACTACCAATCAGTAGCACTTTCATACATCCCGCGACCTGACGGTGATCTTTTGACCGCATCTATGGATGAATT
modifications: misc_feature 1..344: note = Inhibitory double stranded RNA; listed as RNA
B3: LIPA dsRNA: long dsRNA against G. orontii TAG lipase A (target SEQ ID NO:2) (nucleic acid)
chain: CTCTTACGCTCATTCTCACGTATATTTCATCGTCGAAAAGGAAGTAGGCCAGAAAGACATATGCACTCTAACATTGAATGTACGAACTGCACTGTTCATATGGGATTTTGGACAAGCTACCAACAAATACGTCCTCATTTATTCTCCAAGATTAGTAGCCTTCGAAAAAAATTCCCTAACTATCGATTGGATTTAGTCGGACACTCACTAGGTGGCGCTGTTGCTGCTCTTGCTGGACTTGATCTTAAATTACTTGGATACGAACCTATCGTAACAAC
modifications: misc_feature 1..278: note = Inhibitory double stranded RNA; listed as RNA
B4: BCDO dsRNA: long dsRNA targeting G. orontii MGH1 BCDO (target SEQ ID NO:145) (nucleic acid)
chain: ACTGCTCATAGTAATCCTATCCTATTTGCCCGGCTCGACTCAGGTGATCAAAAGGATTAGTGTAGCTAACACCAATATCTTATACCATGATGGACGGGCTTTGGCGACCTGCGAAAGTGGCCCACCAATGAGAGTTGTTCTCCCTCATCTGGATACAGTCGGTTGGTTCGATGGGCTGAAGGTAGGGGGAGAAAAGGCTACCGATGAATCGGACGGTCAATCCTTTGCGAAAGAAGGAACCTTTAATGTATTGGATGGACGGACAAC
modifications: misc_feature 1..267: note = Inhibitory double stranded RNA; listed as RNA
B5: AATF dsRNA: long dsRNA against G. orontii apoptosis antagonizing transcription factor (target SEQ ID NO:92) (nucleic acid)
chain: TCCGAAGGAGAGTATTCATCAGAAACTCAGGTTTCAGAATACTCGGACGATCAACTCAACTCTGATAATCTTGAAGATGAAGAATCTGATAGTGATGATGATGATGATATTGGAGATGAAAGAACCGAACGATCCGAAATTCAGAAAATCATGAAAGAAGATCAAAAGACCGTGGTATCAACAATATCTCAAGCAGTAAAAGCAGATGTTGAAAAGGGTAAAGCTGTCAAGGCTCAGCGAATGAGATTCGATTGTTTGTTAAATGTACGAATGGCAATGCAAAA
modifications: misc_feature 1..284: note = Inhibitory double stranded RNA; listed as RNA
B6: OEC14 dsRNA: long dsRNA against G. orontii effector candidate 14 (target SEQ ID NO:124) (nucleic acid)
chain: CACAACAGCTCTCCTAATCTCTCCCTCCCTAGGAGTTAATTCAGCTCAGAACGGCGAAACTCCCGATGACGATTCATTAGGTTCTACGAAACACATGAACTTTGGCTCTGGTCTCTCTGAATTCAATGCTCATGAAGATATGTATGTTCCTGCCATGGATCTGAATGGGTTTAGAATAAAGCGACGACATTTTCAAAATGAAGGCTATTACTGCAGCAAATCG
modifications: misc_feature 1..223: note = Inhibitory double stranded RNA; listed as RNA
B7: OEC60/OEC61 dsRNA: long dsRNA against G. orontii effector candidate 60/61 (target SEQ ID NO:122) (nucleic acid)
chain: CACAAAATGGGCCAAATGGGAAATTGTCGAGCTAATTGTGATTGGAAACGAAGCCCTATTTAATGGCCATACTTCTCCAGATGAGCTCGCAAGATTTATTAGCTCAACCAGAAATACACTACGATCCTCTGGTTACAATGGACCTTGCACAACAGCTGAGCCTCTCAATATCTGGCAGCAAAGCTCGGATGTATTGTGTGGT
modifications: misc_feature 1..202: note = Inhibitory double stranded RNA; listed as RNA
B8: OEC70 dsRNA: long dsRNA against G. orontii effector candidate 70 (target SEQ ID NO:123) (nucleic acid)
chain: ACAGAGACCGTAACCGTAACTGTCTGTGCACCATCTGCCTCTGCCCATCCCTCTTCGGGATATGCTATGCCATCAGTCTATCCGGCACCAGTTTCATCAGACCCTGCCAGTCCTGCATACCCGCCAAGCGCTTCTGGTGGCTACTCCTCTCCACCACCAAACCAAACTCCAGCACCATTCACCGGCGCCGCTTCAGCAAACGCAGCTCAGGTAGTATCAGCCATTATTGCTGC
modifications: misc_feature 1..233: note = Inhibitory double stranded RNA; listed as RNA
B9: APC1 dsRNA: dsRNA against G. orontii APC1, Anaphase promoting complex/20S cyclosome subunit (target SEQ ID NO:163) (nucleic acid)
chain: AGATTGGTATTATCTCGCCTGAATATGCAACGTTTAGAAGTTCTATTCAGACAAAGCCGACTCTTAATCAACGCAAGGTTTTTACGGTGGCGCCGCCCTTGTGCGCTTCTGACGATGTACAGGAGAATTCTTGTATTATTTGTATCCTTGATCCTAATGAAAAGAAACTTATTACTGTAAATTTAAATATCAAGGCCTCGGAGCAAAAAAGTGAACTCGCAAAATCGGAAAATCTAAAATCTAAGAAAGAGGCAACTACAGTGTCACTT
modifications: misc_feature 1..269: note = Inhibitory double stranded RNA; listed as RNA
B10: 2 (nucleic acid, listed as Golovinomyces orontii)
chain: ATGTCTAGGCATACATCTGCATTTTTCGTTCTCTTTCCTACATTATTCGTCATATTAGCCAGTGCCTATCAATCACACTATGGCTCATCCTATCATCAGCAAGAGTCTCTTCAATCTGACGCACAATGGAATAGCAATATCTCTGATACTTTATTCCTGGAGCTAGAGGAACTAGCTCGTATCGTTGATATTGCTTACTGTGTTGGTACAACAGGAATCTCTAGCCCTTTTGTATGCGCCTCGCATTGCAGCGATTTTCCAAGCTTTGAACTCGTGGATACATTCCATTCAGGATACTTATTGGGCAATAGTTGCGGTTACATTGCACTTGATCATGCGTCGGACAATAACAGAGGACGAATACTGGTAGTTTTCAGGGGTACATACAGTATCGACGACACTATAATAGACCTGACTATGGTACCACAAAAGTACGCGCCATACCCGTCTCATCACGAAAATAATTTCAAAAGATCAGAATCAAGCCCACTTTTTAATTTAATACCTAGTAAAGAAATTCGGTCCCTCTTACGCTCATTCTCACGTATATTTCATCGTCGAAAAGGAAGTAGGCCAGAAAGACATATGCACTCTAACATTGAATGTACGAACTGCACTGTTCATATGGGATTTTGGACAAGCTACCAACAAATACGTCCTCATTTATTCTCCAAGATTAGTAGCCTTCGAAAAAAATTCCCTAACTATCGATTGGATTTAGTCGGACACTCACTAGGTGGCGCTGTTGCTGCTCTTGCTGGACTTGATCTTAAATTACTTGGATACGAACCTATCGTAACAACCTTTGGTGAGCCACGCGTTGGAAATACTGGATTCAGAGATTTCATGGATGCCACATTTAACCTACGCTCCCAGAACTCAGGGGGTCATTTAGACATGCCAAGCTGCAAAGATCACTATCGTAGAGTGACTCATACAAGTGATCCTATGCCATTACTACCGCCGCAAGATTTTGGCTATCGCCCACATGCTGGCGAGGTATTCATCTCAAAACGAGATCTTCCAGTGGCAATACAAGACGTTCGTCACTGTTTTGGTGACGATGATGTGAACTGTATCGAGGAAAGAGGAAACAATAGAGTTTGGACTGATTTATCTGAGACGTCGAAAATAAGAGCCGGCACCAAAGACTCCTTAGATGCCAGGGGTGGCGAATTGAAAAAACGAGATAGGGTACGATTACATCCTCCCCATCTTTGGCGACCCTTTCTAGCGCATCGTGACTATTTTTGGCGCCTAGGATTATGCGTTCCAGGAGATGATCCAACTGGTCAAGTAAGAGACGAGGTTTAG
modifications: listed as DNA
B11: 15 (nucleic acid, listed as Golovinomyces orontii)
chain: CCTTTTGATTACTCCGCCCAACTTTTTTTTTTTAGGTTTTCAGTACTTCACCCTAGGAAGCTCCTCAATCATCATTTCTGAAAAGATGTCATCGTCTCTAGACCAACTTAAATCCACTGGAACTACTATTGTCTGTGATTCAGGTGATTTTGAATCAATTGGCAAATATAAACCTC
modifications: listed as DNA

Test system: G. orontii MGH1
Experiment: Spray-induced gene silencing (SIGS), G. orontii spore production on A. thaliana (whole plant and detached leaf assays)
Type: in vivo, Golovinomyces orontii
Details: for average reduction in spore production / effect on spore production: vs buffer control; for effect on spore production: long dsRNA
[1] = A. thaliana detached leaf assay
[2] = topical dsRNA against G. orontii target (Gor Seq ID), n>=3

Molecule | average reduction in spore production [1] | average reduction in spore production (A. thaliana whole plant assay) | also measured
B1 | 30% | 46% | visual powdery mildew coverage and density (A. thaliana plants, 9 days post infection, vs buffer control-sprayed plants): less powdery mildew coverage and density
B2 | 51% | 22% | 
B3 | 67% | 41% | 
B4 | 54% | 50% | 
B5 | 32% | 21% | 
B6 |  |  | effect on spore production (A. thaliana whole plant assay): significantly reduced spore production
B7 |  |  | effect on spore production (A. thaliana whole plant assay): significantly reduced spore production
B8 |  |  | effect on spore production (A. thaliana whole plant assay): significantly reduced spore production
B9 |  |  | reduction in spore production (assay format not stated): 48%
B10 |  |  | G. orontii Spore Production on Arabidopsis, Detached Leaf Assay, % reduction [2]: 67%; G. orontii Spore Production on Arabidopsis, Whole Plant Assay, % reduction (topical dsRNA against G. orontii target (Gor Seq ID), whole plant assay, n>=3): 41%
B11 |  |  | G. orontii Spore Production on Arabidopsis, Detached Leaf Assay, % reduction [2]: 38%
